Test results taken from US20230020729A1 (Memorial Sloan Kettering, published 2023).
Residue numbers refer to the chain shown, from its start.

T1: human Fc Receptor-Like 5 (FcRL5), full length, expressed on cells (human, UniProt Q96RD9 16-977)
T1 construct: also called CD307e; IRTA2
T1 sequence: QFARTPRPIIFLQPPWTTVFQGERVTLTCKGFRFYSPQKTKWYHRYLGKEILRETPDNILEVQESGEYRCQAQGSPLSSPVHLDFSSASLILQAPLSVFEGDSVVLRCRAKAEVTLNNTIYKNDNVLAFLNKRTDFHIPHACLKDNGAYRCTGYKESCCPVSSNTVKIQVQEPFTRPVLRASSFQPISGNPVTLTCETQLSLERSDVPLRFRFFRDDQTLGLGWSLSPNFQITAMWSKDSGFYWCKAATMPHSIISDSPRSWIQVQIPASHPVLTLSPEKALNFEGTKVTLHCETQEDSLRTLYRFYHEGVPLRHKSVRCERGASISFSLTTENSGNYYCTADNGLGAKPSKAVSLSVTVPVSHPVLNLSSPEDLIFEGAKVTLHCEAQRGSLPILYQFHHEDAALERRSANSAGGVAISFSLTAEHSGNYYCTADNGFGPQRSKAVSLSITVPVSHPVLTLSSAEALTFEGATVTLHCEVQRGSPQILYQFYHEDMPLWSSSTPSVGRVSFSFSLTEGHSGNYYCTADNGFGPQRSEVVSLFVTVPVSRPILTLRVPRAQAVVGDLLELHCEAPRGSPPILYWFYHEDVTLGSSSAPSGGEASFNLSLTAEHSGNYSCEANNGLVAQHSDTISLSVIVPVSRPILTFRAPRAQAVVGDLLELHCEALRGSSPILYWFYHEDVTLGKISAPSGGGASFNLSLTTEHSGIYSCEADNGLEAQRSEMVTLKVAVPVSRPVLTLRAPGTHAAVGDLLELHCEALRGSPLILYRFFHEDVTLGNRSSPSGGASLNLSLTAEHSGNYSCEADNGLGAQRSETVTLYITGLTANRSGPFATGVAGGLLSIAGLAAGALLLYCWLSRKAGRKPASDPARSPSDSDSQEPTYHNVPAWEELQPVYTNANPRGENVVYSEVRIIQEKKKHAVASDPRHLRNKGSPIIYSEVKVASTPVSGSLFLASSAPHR

B1: ET200-039 scFv (scFv)
scFv: NFMLTQPHSVSESPGKTVTISCTRSSGSIASNYVQWYQQRPGSSPTTVIYEDNQRPSGVPDRFSGSIDSSSNSASLTISGLKTEDEADYYCQSYDSSNWVFGGGTKLTVLGSRGGGGSGGGGSGGGGSLEMAEVQLVQSGAEVKKPGSSVKVSCKASGGTFSSYAISWVRQAPGQGLEWMGGIIPIFGTANYAQKFQGRVTITADESTSTAYMELSSLRSEDTAVYYCARSNYYYNDYWGQGTLVTVSS
notes: VL-linker-VH; screened as scFv phage clone; also called ET200-39
B2: ET200-035 scFv (scFv)
scFv: B1 scFv with S44A, S97T, E133Q, S231Y, Y235F
notes: VL-linker-VH; screened as scFv phage clone
B3: ET200-026 scFv (scFv)
scFv: B1 scFv with R24G, S44A, S231N, Y233H
notes: as for B2
B4: ET200-023 scFv (scFv)
scFv: LPVLTQPPSVSVAPGKTARITCGGNNIGSKSVHWYQQKPGQAPVLVVYADSDRPSGIPERFSGSNSGNTATLTISRVEAGDEADYYCQVWDSSSYHNYVFGTGTKVTVLGSRGGGGSGGGGSGGGGSLEMAEVQLVQSGAEVKKPGASVKVSCKASGYTFTSYGISWVRQAPGQGLEWMGWISAYNGNTNYAQKLQGRVTMTTDTSTSTAYMELSSLRSEDTAMYYCARYWGFGVSDRWGQGTLVTVSS
notes: as for B2
B5: ET200-027 scFv (scFv)
scFv: QSVLTQPPSVSGAPGQGVTIPCTGSSSNIGAGYDVHWYQQLPGTAPKLLIYGNNNRPSGVPDRFSGSRSGSSASLAITGLQAEDEADYYCQSYDSSLSDVVFGGGTKVTVLGSRGGGGSGGGGSGGGGSLEMAEVQLVQSGAEVKKPGATVKISCKVSGYTFTDYYMHWVQQAPGKGLEWMGLVDPEDGETIYAEKFQGRVTITADTSTDTAYMELSSLRSEDTAVYYCARYWSYSFDYLYMPEGNDWWGQGTLVTVSS
notes: as for B2
B6: ET200-022 scFv (scFv)
scFv: QSVVTQPPSVSAAPGQKVTISCSGSSSNIGNNYVSWYQQLPGTAPKLLIYDNNKRPSGIPDRFSGSKSGTSATLGITGLQTGDEADYYCGTWDSSLGAPYVFGTGTKVTVLGSRGGGGSGGGGSGGGGSLEMAEVQLVQSWGGSEQPGRSLRLSCAASGFTFDDYAMHWVRQAPGKGLEWVSGISWNSGSIGYADSVKGRFTISRDNAKNSLYLQMNSLRAEDTAMYYCARYRQVGSAYDSWGQGTLVTVSS
notes: as for B2
B7: ET200-015 scFv (scFv)
scFv: QSVVTQPPSVSVAPGKTARITCGGNNIGSKSVHWYQQKPGQAPVLVIYYDSDRPSGIPERFSGSNSGNTATLTISRVEAGDEADYYCQVWDSSSDVVFGGGTKLTVLGSRGGGGSGGGGSGGGGSLEMAEVQLVQSGAEVKKPGASVKVSCKASGYTFTSYGISWVRQAPGQGLEWMGWISAYNGNTNYAQKLQGRVTMTTDTSTSTAYMELRSLRSDDTAVYYCARWGGFGAVDHWGQGTLVTVSS
notes: as for B2
B8: ET200-021 scFv (scFv)
scFv: QSVLTQPPSVSAAPGQKVTISCSGSNSNIGNNYVSWYQQLPGTAPKLLIYDNNKRPSGIPDRFSGSRSGTSATLGITGLQTGDEADYYCGTWNTTVTPGYVFGTGTKVTVLGSRGGGGSGGGGSGGGGSLEMAEVQLVQSGAEVKKPGASVKVSCKASGYTFTSYGISWVRQAPGQGLEWMGWISAYNGNTNYAQKLQGRVTMTTDTSTSTAYMELRSLRSDDTAMYYCARSVYDLDTWGQGTLVTVSS
notes: as for B2
B9: ET200-013 scFv (scFv)
scFv: QSVVTQPPSVSGAPGQRVTISCTGSTSNIGAGYDVHWYQQLPGTAPKLLIYTNNFRPSGVPDRFSASKSGTSASLAITGLQAEDEADYYCGTWDSSLSAVVFGGGTKLTVLGSRGGGGSGGGGSGGGGSLEMAEVQLVESGTEVKKPGASVKVSCKASGYMFTSYGLNWVRQAPGQGLEWMGWISANNGKTNYAKKFQDRVTMTRDTSTSTGYMELRSLRSDDTAVYYCARHIGGSYFDRWGQGTLVTVSS
notes: as for B2
B10: ET200-017 scFv (scFv)
scFv: SYVLTQPPSVSVAPGKTARITCGGNNIGSKSVHWYQQKPGQAPVLVVYDDSDRPSGIPERFSGSNSGNTATLSISRVEAGDEADYYCQVWDSSSDHTVFGTGTKVTVLGSRGGGGSGGGGSGGGGSLEMAQVQLQQWGAGLLKPSETLSLTCAVYGGSFSGYYWSWIRQPPGKGLEWIGEINHSGSTNYNPSLKSRVTISVDTSKNQFSLKLSSVTAADTAVYYCARYYPGMDMWGQGTLVTVSS
notes: as for B2
B11: ET200-016 scFv (scFv)
scFv: SSELTQDPAVSVALGQTVKITCQGDSLTDYHATWYQQKPGQAPVAVIYATNNRPTGIPDRFSGSSSGNTASLTITGAQAEDEADYYCNSRDSGTDEVLFGGGTKLTVLGSRGGGGSGGGGSGGGGSLEMAEVQLVETGGGLVKPGGSLRLSCAASGFTFSSYSMNWVRQAPGKGLEWVSSISSSSSYIYYADSVKGRFTISRDNAKNSLYLQMNSLRAEDTAVYYCARGQGYDYWGQGTLVTVSS
notes: as for B2
B12: ET200-012 scFv (scFv)
scFv: QSVLTQPPSVSAAAGQKVTISCSGSDSNIGNNYVSWYQHLPGTAPKLLIYDVKNRPSGIPDRFSGSKSGSSATLGIAGLQPGDEADYYCGTWDSRLDAYVFGTGTKVTVLGSRGGGGSGGGGSGGGGSLEMAQMQLVQSGAEVKKPGASVKVSCKTSGFPFNIFGITWVRQAPGQGLEWMGWISGYNGNTDYPQKFQGRVTMSTDTSTSTAYMELRNLKSDDTAVYYCARGAYGGMDTWGQGTLVTVSS
notes: as for B2
B13: ET200-014 scFv (scFv)
scFv: SYVLTQPPSVSVAPGKTARITCGGNNIGSKSVHWYQQKPGQAPVLVIYYDSDRPSGIPERFSGSNSGNTATLTISRVEAGDEADYYCQVWDSSSDHYVFGTGTKVTVLGSRGGGGSGGGGSGGGGSLEMAEVQLVETGGGLVQPGGSLRLSCAASGFTFSSYAMSWVRQAPGKGLEWVSAISGSDGSTYYADSVKGRFTISRDNSKNTLYLQMNSLRDEDTAVYYCARSHEANLVGDWWGQGTLVTVSS
notes: as for B2
B14: ET200-019 scFv (scFv)
scFv: NFMLTQPHSVSESPGKTVTISCTRSSGSIASNYVQWYQQRPGSAPTTVIYEDNQRPSGVPDRFSGSIDSSSNSASLTISGLKTEDEADYYCQSYDSSNSWVFGGGTKLTVLGSRGGGGSGGGGSGGGGSLEMAQVQLVQSGAEVKRPGSSVKVSCTASGGTFSSDAISWVRQAPGQGLEWMGGIIPMFGTANYAQKFQGRVTITADESTSTAYMELSSLRSEDTAVYYCAREGYYYPSAYLGSVLNDISSVYDEWGQGTLVTVSS
notes: as for B2
B15: ET200-028 scFv (scFv)
scFv: QSVLTQPPAASGTPGQRVTISCSGGVSNIGSGALNWYQQLPGTAPKLLIYSYNQRPSGVSDRFSGSRSATSASLAISGLQSEDEADYYCATWDDSVNGWVFGGGTKLTVLGSRGGGGSGGGGSGGGGSLEMAQVQLVQSGAEVKKPGDSVKVSCKPSGYNFLNYGINWVRQAPGQGLEWMGWISTYTGNTNYAQKLQGRVTFTTDTSTSTAYMEMRSLRSDDTAVYYCARDLYYYEGVDYWGQGTLVTVSS
notes: as for B2
B16: ET200-020 scFv (scFv)
scFv: QSVVTQPPSVSAAPGQKVTISCSGSTSNIGNNDVSWYQQLPGTAPKLLIYDNNKRPSGIPDRFSGSKSGTSATLGITGLQTGDEADYYCGTWDSSVSASWVFGRGTKLTVLGSRGGGGSGGGGSGGGGSLEMAQVQLVQSGAEVKKPGASVKVSCKASGYTFTSYGISWVRQAPGQGLEWMGWISAYNGNTNYPQKLQGRVTMTTDPSTSTAYMELRSLRSDDTAVYYCARSMTSFDYWGQGTLVTVSS
notes: as for B2
B17: ET200-018 scFv (scFv)
scFv: QAVLTQPPSTSGTPGQRVTISCSGSSSNIGRNGVNWYQQLPGAAPKVLIYNDNQRPSGVPDRVSGSQSGSSGTLAIDGLRSEDEADYYCAAWDDSLHGVVFGGGTKLTVLGSRGGGGSGGGGSGGGGSLEMAQVQLVQSGAEVKKPGASVKVSCKVSGYTLNELSMHWVRQAPGKGLEWMGGFDPEDGETIYAQKFQGRVTMTEDTSTDTAYMELSSLRSEDTAVYYCARGGYGDSWGQGTLVTVSS
notes: as for B2
B18: ET200-002 scFv (scFv)
scFv: NFMLTQPHSVSESPGKTVTISCTRSSGSIASNYVQWYQQRPGSAPTTVIYEDNQRPSGVPDRFSGSIDSSSNSASLTISGLKTEDEADYYCQSYDSSNSVVFGGGTKLTVLGSRGGGGSGGGGSGGGGSLEMAQVQLVQSGTEVKKPGASVRVACKASGYPFNKYDINWVRQAPGQGLEWMGGIIPIFRTTNYAQKFQGRVTITADESTSTAYMELSSLRSEDTAVYYCAREWFYWDIWGQGTLVTVSS
notes: as for B2

These binders were tested against T1, human Fc Receptor-Like 5 (FcRL5), full … (assay: scFv phage: ELISA on His-tag FcRL5, flow cytometry on FcRL5-overexpressing 3T3 and Raji cells).

Binder | binding result
B1 | binds
B2 | binds
B3 | binds
B4 | binds
B5 | binds
B6 | binds
B7 | binds
B8 | binds
B9 | binds
B10 | binds
B11 | binds
B12 | binds
B13 | binds
B14 | binds
B15 | binds
B16 | binds
B17 | binds
B18 | binds
